From article PMC11662928, “L1-ORF1p nucleoprotein can rapidly assume distinct conformations and simultaneously bind more than one nucleic acid”

Tests used:
ORF1p WT (111p) [1] = target: ORF1p WT (111p) (UniProt Q9UN81); experiment: optical tweezers; conditions: 30 pN; K* = compact and de-compact states equally occupied, not a simple Kd; Binding buffer with 50 mM Na+ (pH and other components not in the material), 21 C (stated for m128p); 8.1 knt ssDNA held at 5-50 pN
[2] = target: m128p (CTD, RRM, 3.5 of 14 CC heptads) (UniProt Q9UN81); experiment: optical tweezers (koff/kon); conditions: Binding buffer with 50 mM Na+ (pH and other components not in the material), 21 C (stated for m128p); 8.1 knt ssDNA held at 5-50 pN
Sequence of m128p (CTD, RRM, 3.5 of 14 CC heptads) (Q9UN81 128-338): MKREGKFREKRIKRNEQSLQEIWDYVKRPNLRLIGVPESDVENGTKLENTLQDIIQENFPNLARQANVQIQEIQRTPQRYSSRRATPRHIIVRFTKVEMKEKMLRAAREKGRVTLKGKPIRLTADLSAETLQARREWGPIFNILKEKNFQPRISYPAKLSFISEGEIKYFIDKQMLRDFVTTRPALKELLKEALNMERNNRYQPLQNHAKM

ORF1p WT (111p) [3] = target: ORF1p WT (111p) (UniProt Q9UN81); experiment: optical tweezers (koff/kon); conditions: 30 pN tension, 1 nM ORF1p; Binding buffer with 50 mM Na+ (pH and other components not in the material), 21 C (stated for m128p); 8.1 knt ssDNA held at 5-50 pN
ORF1p WT (111p) [4] = target: ORF1p WT (111p) (UniProt Q9UN81 1-338); experiment: confocal fluorescence with optical tweezers; 30 nM ORF1p bound to tethered 8.1 knt ssDNA (ternary complex), 10 and 30 pN; Binding buffer with 50 mM Na+ (pH and other components not in the material), 21 C (stated for m128p); 8.1 knt ssDNA held at 5-50 pN; conditions: protein: recombinant; tags: N-terminal His; chain copies: 3; label: 5' Alexa488; single strand
Sequence of ORF1p WT (111p) (UniProt Q9UN81 1-338) (Q9UN81 whole entry): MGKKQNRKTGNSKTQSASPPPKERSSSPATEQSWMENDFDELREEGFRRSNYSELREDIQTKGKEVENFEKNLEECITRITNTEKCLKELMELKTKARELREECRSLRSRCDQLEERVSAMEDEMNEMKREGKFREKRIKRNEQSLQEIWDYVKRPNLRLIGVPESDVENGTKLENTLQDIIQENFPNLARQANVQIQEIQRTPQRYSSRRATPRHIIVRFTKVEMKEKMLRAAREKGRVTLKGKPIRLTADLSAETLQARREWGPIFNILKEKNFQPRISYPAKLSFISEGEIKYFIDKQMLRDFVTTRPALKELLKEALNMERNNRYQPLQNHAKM

Sequence of ORF1p WT (111p) (UniProt Q9UN81) (Q9UN81 whole entry): as above

## 8.1 knt ssDNA
ORF1p WT (111p) [1]
  K half: 2.8 nM
[2]
  Kd: 1.6 nM
ORF1p WT (111p) [3]
  Kd: 0.17 nM

B1: Alexa488-dT20 (ssDNA)
DNA: TTTTTTTTTTTTTTTTTTTT
ORF1p WT (111p) [4]
  binding result: binds
